Reference: the supplement of paper PMC9112550, “Optimization of the antimicrobial peptide Bac7 by deep mutational scanning” (BMC Biology, 2022)

tested on: Escherichia coli TOP10; experiment: shrunken log2 fold change of peptide-encoding DNA abundance (4.5 h post-induction vs induction); higher = less antimicrobial activity (less host growth inhibition); conditions: time post-induction: 4.5 h; library: site-saturation at positions 5, 18, 19, 20
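Also: peptides expressed intracellularly from a pBAD plasmid library in pooled LB shake-flask culture, induced with 0.3% L-arabinose, DNA abundance read by NGS, three biological replicates, DESeq2 with apeglm shrinkage.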

Point of comparison: RRIRQRPPRLPRPRPRPSPNPRP, “shrunken log2 fold change” value 0.16. Against it:
- RRIRPRPPRLPRPRPRPQKNPRP — lower, -0.169
- RRIRVRPPRLPRPRPRPWWIPRP — lower, -0.202
- RRIRERPPRLPRPRPRPTACPRP — lower, -0.134
- RRIRPRPPRLPRPRPRPADQPRP — within 0.2 log units, 0.00426
- RRIRHRPPRLPRPRPRPQGNPRP — lower, -0.168
- RRIRPRPPRLPRPRPRPRVMPRP — within 0.2 log units, 0.327
- RRIRLRPPRLPRPRPRPNYVPRP — lower, -0.566
- RRIRKRPPRLPRPRPRPDKWPRP — higher, 0.429
- RRIRKRPPRLPRPRPRPWTMPRP — within 0.2 log units, 0.00233
- RRIRGRPPRLPRPRPRPDSYPRP — within 0.2 log units, 0.0941
- RRIRQRPPRLPRPRPRPKWIPRP — lower, -0.0524
- RRIRCRPPRLPRPRPRPDPYPRP — lower, -0.197
- RRIRIRPPRLPRPRPRPYRDPRP — within 0.2 log units, -0.0075
- RRIRNRPPRLPRPRPRPVLEPRP — within 0.2 log units, 0.183
- RRIRQRPPRLPRPRPRPLREPRP — higher, 1.44
- RRIRMRPPRLPRPRPRPAKWPRP — higher, 0.708
- RRIRFRPPRLPRPRPRPMGFPRP — within 0.2 log units, -0.0249
- RRIRMRPPRLPRPRPRPKNGPRP — within 0.2 log units, 0.0732
- RRIRDRPPRLPRPRPRPFPCPRP — within 0.2 log units, 0.0367
- RRIRSRPPRLPRPRPRPGKVPRP — lower, -0.0472
- RRIRLRPPRLPRPRPRPDEHPRP — lower, -0.287
- RRIRDRPPRLPRPRPRPPARPRP — higher, 1.46
- RRIRKRPPRLPRPRPRPVYVPRP — within 0.2 log units, -0.0394
- RRIRVRPPRLPRPRPRPTFWPRP — within 0.2 log units, 0.3
- RRIRCRPPRLPRPRPRPTGSPRP — within 0.2 log units, 0.0208
- RRIRARPPRLPRPRPRPPIMPRP — within 0.2 log units, 0.0549
- RRIRWRPPRLPRPRPRPCYIPRP — lower, -0.46
- RRIRHRPPRLPRPRPRPHGPPRP — within 0.2 log units, 0.0873
- RRIRSRPPRLPRPRPRPTKPPRP — within 0.2 log units, 0.196
- RRIRRRPPRLPRPRPRPPSAPRP — higher, 0.626
- RRIRLRPPRLPRPRPRPAENPRP — within 0.2 log units, 0.0583
- RRIRKRPPRLPRPRPRPVIEPRP — within 0.2 log units, 0.15
- RRIRERPPRLPRPRPRPWGKPRP — lower, -0.042
- RRIRERPPRLPRPRPRPSHQPRP — lower, -0.19
- RRIRHRPPRLPRPRPRPTARPRP — within 0.2 log units, 0.156
- RRIRGRPPRLPRPRPRPTNGPRP — within 0.2 log units, 0.254
- RRIRWRPPRLPRPRPRPWDEPRP — lower, -0.106
- RRIRYRPPRLPRPRPRPMLCPRP — lower, -0.0838
- RRIRTRPPRLPRPRPRPYEQPRP — within 0.2 log units, -0.0291
- RRIRARPPRLPRPRPRPILTPRP — within 0.2 log units, 0.0217
- RRIRMRPPRLPRPRPRPKADPRP — higher, 2.35
- RRIRMRPPRLPRPRPRPQSFPRP — lower, -0.199
- RRIRHRPPRLPRPRPRPTGYPRP — within 0.2 log units, -0.0185
- RRIRMRPPRLPRPRPRPYLAPRP — within 0.2 log units, -0.0134
- RRIRFRPPRLPRPRPRPICYPRP — within 0.2 log units, 0.00889
- RRIRARPPRLPRPRPRPIEAPRP — within 0.2 log units, 0.213
- RRIRTRPPRLPRPRPRPDELPRP — lower, -0.0838
- RRIRYRPPRLPRPRPRPYHHPRP — lower, -0.0688
- RRIRRRPPRLPRPRPRPTIPPRP — lower, -0.0701
- RRIRTRPPRLPRPRPRPSTSPRP — lower, -0.239
- RRIRYRPPRLPRPRPRPDGPPRP — within 0.2 log units, 0.123
- RRIRVRPPRLPRPRPRPRVTPRP — within 0.2 log units, 0.274
- RRIRSRPPRLPRPRPRPPGQPRP — higher, 0.4
- RRIRRRPPRLPRPRPRPCWCPRP — lower, -0.138
- RRIRNRPPRLPRPRPRPFHFPRP — lower, -0.359
- RRIRFRPPRLPRPRPRPNYWPRP — lower, -0.221
- RRIRMRPPRLPRPRPRPGMQPRP — within 0.2 log units, -0.00144
- RRIRIRPPRLPRPRPRPQFVPRP — lower, -0.229
- RRIRERPPRLPRPRPRPPLCPRP — within 0.2 log units, 0.124
